One test concerns the target Caulobacter ClpS (Caulobacter vibrioides, UniProt Q9A5I0). The experiment in a line: ClpS binding assay by fluorescence anisotropy. The arrangement: species or system Caulobacter crescentus. As to conditions: Fig. 3B.
Test [1] deals with peptides with Tyr, Trp, Phe, or Leu at the N-terminus. As to the kind of experiment: fluorescence polarisation. A general note: In fluorescence polarisation assays a small probe gives low polarisation when free and higher when bound to something large.
Test [2] has as its target T1, C. crescentus ClpS residues 35-119 (Caulobacter crescentus, UniProt Q9A5I0 35-119).
T1 sequence (looked up): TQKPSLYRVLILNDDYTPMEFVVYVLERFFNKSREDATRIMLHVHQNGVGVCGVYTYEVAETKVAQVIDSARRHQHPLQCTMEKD
The experiment in a line: fluorescence polarisation.

The target in test [3] is T1, C. crescentus ClpS residues 35-119. As to the kind of experiment: crystal structure.

Where a chain is given by its changes, count along the chain named. Numbers in names are those of the source. No end group written: not given here.

In the case of “Xxx-Leu-Phe-Val-Gln-Tyr-His6-Cys [Tyr peptide]”, the “affinity for Caulobacter ClpS (in words)” value at Caulobacter ClpS is “sub-micromolar”.

B1: C. crescentus ClpS residues 35-119 (domain or fragment)
chain: T1 sequence (looked up)
For the molecule B1, the Kd in test [1] was in the range of 150 to 500 nM.
For FLFVQYHHHHHHC(fluorescein maleimide) [fluorescein-labelled N-end rule peptide Phe-Leu-Phe-Val-Gln-Tyr-His6-Cys], in test [2], the binding result is “binds”.
The same measure, in the same setting: for WLFVQYHHHHHHC(fluorescein maleimide) [fluorescein-labelled N-end rule peptide Trp-Leu-Phe-Val-Gln-Tyr-His6-Cys] the value was “binds”.
Regarding YLFVQYHHHHHHC(fluorescein maleimide) [fluorescein-labelled N-end rule peptide Tyr-Leu-Phe-Val-Gln-Tyr-His6-Cys], in test [2], the Kd is about 400 nM.
With YLFVQRDSKE [N-end rule decapeptide Tyr-Leu-Phe-Val-Gln-Arg-Asp-Ser-Lys-Glu], the binding result in test [3] is on record as “binds”.

B2: E. coli ClpS D36A (natural protein)
chain: MGKTNDWLDFDQLAEEKVRDALKPPSMYKVILVNDAYTPMEFVIDVLQKFFSYDVERATQLMLAVHYQGKAICGVFTAEVAETKVAMVNKYARENEHPLLCTLEKA
Regarding B2, the KM of ClpAP degradation of Tyr-GFP with the ClpS variant (900 nM), fold increase with Tyr-GFP turned out to be 2 fold.

B3: E. coli ClpS H66A (natural protein)
chain: B2 chain with A36D, H66A
B3: in the test with Tyr-GFP, the KM of ClpAP degradation of Tyr-GFP with the ClpS variant (900 nM), fold increase turned out to be 5 fold.
Consider LLFVQYHHHHHHC(fluorescein maleimide) [fluorescein-labelled N-end rule peptide Leu-Leu-Phe-Val-Gln-Tyr-His6-Cys], for which the binding result in test [2] is recorded as “binds”.

By Kd is commonly meant the constant that tells how readily two partners part at equilibrium. A higher Kd goes with weaker binding.

The values above are taken from article PMC3114436 (Molecular cell, 2008).
